Reference: patent publication US20180251563A1 (SUBDOMAIN, published 2018)
Where a chain is given by its changes, count along the chain named.

T1: CD123 (target of Example 19) (Homo sapiens (Human), UniProt P26951 19-305, limits assumed)
T1 sequence: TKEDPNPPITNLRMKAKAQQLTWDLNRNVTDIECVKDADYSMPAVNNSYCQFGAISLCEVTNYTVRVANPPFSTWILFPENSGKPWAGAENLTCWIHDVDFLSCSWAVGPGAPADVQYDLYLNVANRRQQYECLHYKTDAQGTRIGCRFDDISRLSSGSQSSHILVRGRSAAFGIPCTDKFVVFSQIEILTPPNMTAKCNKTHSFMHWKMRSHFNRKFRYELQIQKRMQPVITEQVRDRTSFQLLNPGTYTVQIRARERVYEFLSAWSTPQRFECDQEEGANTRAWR

B1: SEQ ID NO 79 (designed binder)
chain: MGSWFMFKEELADIKDWLEALGGSEAELASFESYIAWFEQDLQWYKGKGNPEVEALRKEAAAIRDELQAYRHN
B2: SEQ ID NO 93 (designed binder)
chain: MGSWSEFWQRLEAIEDRLWALGGSEAELAAFEKEIAAFESELQAYKGKGNPEVEWLRENAAMIRDELQAYRHN
B3: SEQ ID NO 100 (designed binder)
chain: B2 chain with S5I, W8Y, Q9D, E15Y, W19D, N59D, M62F, D65S, E66W
B4: SEQ ID NO 110 (designed binder)
chain: B2 chain with S5Y, W8E, Q9Y, W55Y, N59E, M62W, D65V, E66W
B5: SEQ ID NO 115 (designed binder)
chain: B2 chain with S5W, W8E, Q9M, W19F, W55S, E58W, N59E, M62F, E66I
B6: SEQ ID NO 111 (designed binder)
chain: B2 chain with S5V, W8E, Q9N, D16N, N59D, M62Q, D65M, E66M
B7: SEQ ID NO 112 (designed binder)
chain: B2 chain with S5Y, Q9D, E15D, W55A, E58Q, N59E, M62W, D65E
B8: SEQ ID NO 104 (designed binder)
chain: B2 chain with S5T, W8H, Q9D, E15D, W55Y, N59E, M62Q, D65W
B9: SEQ ID NO 88 (designed binder)
chain: MGSWFWFKEDLAFIKEDLEALGGSEAELAWFEDGIAFFEWDLQDYKGKGNPEVEALRKEAAAIRDELQAYRHN
B10: SEQ ID NO 70 (designed binder)
chain: MGSWEWFKSDLASIKWELEALGGSEAELAWFEHDIAEFEEDLQWYKGKGNPEVEALRKEAAAIRDELQAYRHN
B11: SEQ ID NO 77 (designed binder)
chain: B10 chain with E5W, W6E, S9E, S13E, E17F, E37K, E40F, D41E, W44Y
B12: SEQ ID NO 89 (designed binder)
chain: B10 chain with E5S, S9E, W16A, E17V, W30F, H33S, E40Q, D41E, W44Y
B13: SEQ ID NO 76 (designed binder)
chain: B10 chain with E5S, S9E, S13D, W16F, H33L, E37D, E40Q, D41A, W44Q
B14: SEQ ID NO 71 (designed binder)
chain: MGSWDHFKNDLAWIKKHLEALGGSEAELAEFEAVIAYFELYLQGYKGKGNPEVEALRKEAAAIRDELQAYRHN
B15: SEQ ID NO 83 (designed binder)
chain: MGSWFNFKEELAVIKFQLEALGGSEAELAFFEWVIADFEDDLQEYKGKGNPEVEALRKEAAAIRDELQAYRHN
B16: SEQ ID NO 75 (designed binder)
chain: MGSWVTFKDELADIKDFLEALGGSEAELAFFEVDIAEFEAELQFYKGKGNPEVEALRKEAAAIRDELQAYRHN
B17: SEQ ID NO 86 (designed binder)
chain: B16 chain with V5Y, T6V, D13E, D16Q, F30W, V33D, A40T, E41Q, F44H
B18: SEQ ID NO 80 (designed binder)
chain: MGSWQIFKGELAYIKQYLEALGGSEAELAFFEFDIAEFEEDLQYYKGKGNPEVEALRKEAAAIRDELQAYRHN
B19: SEQ ID NO 74 (designed binder)
chain: MGSWSFFKDDLAEIKYFLEALGGSEAELAMFEQTIAEFEYDLQDYKGKGNPEVEALRKEAAAIRDELQAYRHN
B20: SEQ ID NO 72 (designed binder)
chain: MGSWEFFKEVLAEIKYDLEALGGSEAELAWFETDIAGFEIDLQVYKGKGNPEVEALRKEAAAIRDELQAYRHN
B21: SEQ ID NO 84 (designed binder)
chain: B20 chain with E5Y, F6M, V10E, E13D, Y16W, D17Y, T33D, I40W, V44A
B22: SEQ ID NO 85 (designed binder)
chain: MGSWHVFKTELADIKFYLEALGGSEAELAMFELWIAEFEHELQDYKGKGNPEVEALRKEAAAIRDELQAYRHN
B23: SEQ ID NO 69 (designed binder)
chain: MGSWWEFTDRLEAIEDRLWALGGSEAELAHFEDSIAQFEQELQWYKGKGNPEVEALADEADAIESELHAYRHN
B24: SEQ ID NO 82 (designed binder)
chain: MGSWYYFKDELADIKWDLEALGGSEAELAWFEMLIAQFELDLQWYKGKGNPEVEALRKEAAAIRDELQAYRHN
B25: SEQ ID NO 92 (designed binder)
chain: MGSWEEFHSRLDAIDDRLWALGGSEAELAAFEKEIAAFESELQAYKGKGNPEVEWLRWEAATIRETLQAYRHN
B26: SEQ ID NO 96 (designed binder)
chain: MGSWIEFNMRLDAIYERLVALGGSEAELAAFEKEIAAFESELQAYKGKGNPEVEWLRKVAANIRLELQAYRHN
B27: SEQ ID NO 103 (designed binder)
chain: B26 chain with N8E, M9V, E16N, V19A, W55R, K58R, V59Y, L65H
B28: SEQ ID NO 98 (designed binder)
chain: B26 chain with I5V, M9I, V19Y, W55K, K58H, V59W, N62S, L65R
B29: SEQ ID NO 105 (designed binder)
chain: B26 chain with I5Y, N8H, M9H, V19L, K58S, V59S, L65K
B30: SEQ ID NO 125 (designed binder)
chain: B26 chain with I5S, N8H, M9V, E16A, V19D, W55R, K58E, V59W, L65R
B31: SEQ ID NO 94 (designed binder)
chain: B26 chain with I5T, N8A, M9W, E16D, V19L, K58H, L65R
B32: SEQ ID NO 124 (designed binder)
chain: B26 chain with I5S, N8Y, M9L, E16D, V19D, V59T, L65E
B33: SEQ ID NO 97 (designed binder)
chain: B26 chain with I5S, V19T, K58H, V59S, N62R
B34: SEQ ID NO 123 (designed binder)
chain: B26 chain with I5T, M9L, E16D, V19M, K58A, V59S, N62A, L65V
B35: SEQ ID NO 81 (designed binder)
chain: MGSWYIFKEDLAEIKEELEALGGSEAELAYFEEEIALFEMELQWYKGKGNPEVEALRKEAAAIRDELQAYRHN
B36: SEQ ID NO 73 (designed binder)
chain: MGSWYDFKEDLADIKWMLEALGGSEAELAEFENVIAYFENDLQEYKGKGNPEVEALRKEAAAIRDELQAYRHN
B37: SEQ ID NO 67 (designed binder)
chain: MGSWSEFVDRLDAIFDRLWALGGSEAELAWFEDTIAHFEWNLQEYKGKGNPEVEALNGEADAITDELHAYRHN
B38: SEQ ID NO 78 (designed binder)
chain: MGSWDEFKEDLAHIKTDLEALGGSEAELALFEDEIADFEMYLQHYKGKGNPEVEALRKEAAAIRDELQAYRHN
B39: SEQ ID NO 90 (designed binder)
chain: MGSWILFKDDLAWIKETLEALGGSEAELAFFEDNIADFEEQLQGYKGKGNPEVEALRKEAAAIRDELQAYRHN
B40: SEQ ID NO 91 (designed binder)
chain: B39 chain with I5Q, L6W, W13Y, F30L, N34M, E40F, Q41E, G44W
B41: SEQ ID NO 99 (designed binder)
chain: MGSWDEFGRRLYAIEWRLYALGGSEAELAAFEKEIAAFESELQAYKGKGNPEVEKLREIAAVIRSNLQAYRHN
notes: also called cg06
B42: SEQ ID NO 87 (designed binder)
chain: MGSWTEFKGELAEIKWILEALGGSEAELAFFEDEIAAFEWDLQKYKGKGNPEVEALRKEAAAIRDELQAYRHN
B43: SEQ ID NO 95 (designed binder)
chain: MGSWDEFYYRLEAIEMRLGALGGSEAELAAFEKEIAAFESELQAYKGKGNPEVEELRHYAAQIRHMLQAYRHN
B44: SEQ ID NO 68 (designed binder)
chain: MGSWWEFTDRLDAIFDRLWALGGSEAELAAFEESIAIFEQDLQYYKGKGNPEVEALEYEANAIQYELEAYRHN
B45: SEQ ID NO 66 (designed binder)
chain: MGSWEEFDKRLDAITRRLMALGGSEAELAEFESTIAWFEWDLQEYKGKGNPEVEALDWEAYAIDYELGAYRHN

Biological target: T1, CD123 (target of Example 19)
Experiment: library selection; assay not described

binding result | Binder
binds | B1
binds | B2
binds | B3
binds | B4
binds | B5
binds | B6
binds | B7
binds | B8
binds | B9
binds | B10
binds | B11
binds | B12
binds | B13
binds | B14
binds | B15
binds | B16
binds | B17
binds | B18
binds | B19
binds | B20
binds | B21
binds | B22
binds | B23

binding result | Binder
binds | B24
binds | B25
binds | B26
binds | B27
binds | B28
binds | B29
binds | B30
binds | B31
binds | B32
binds | B33
binds | B34
binds | B35
binds | B36
binds | B37
binds | B38
binds | B39
binds | B40
binds | B41
binds | B42
binds | B43
binds | B44
binds | B45
